Measured values from patent US12606635B2, “Glypican-2-binding moieties, chimeric antigen receptors and uses thereof” (Nanjing Legend Biotech Co., Ltd., priority 2020, dated 2026).

Tests used:
SH-SY5Y [1] = assay: Serial challenge assay, CAR Ts with different co-stimulatory domains; type: cell-based, human; details: for CAR positive T cells percentage: serial SH-SY5Y challenge, FIG. 14B
Excerpt: To evaluate the persistence of GPC2 CAR T cells, exemplary CAR T cells were selected and tested in the serial challenge assay. Briefly, 4×10^5 SH-SY5Y cells and 1.33×10^5 CART cells transduced with GPC2-BBz, GPC2-CD28z, GPC2-CD27z, GPC2-CD2z, GPC2-ICOSz or GPC2-OX40z lentiviral vectors were co-cultured in 12 well plates using fresh growth medium without IL-2 (E:T ratio=1:3). Cells were harvested after three days co-culture and samples were taken for cell counting using AOPI and T cell quantified by FACs. CAR T cells were replated with fresh SH-SY5Y cells at a 1:2 E:T ratio in growth medium without IL-2 to start the next round of tumor co-culture. Samples were taken for cell counting and T cell quantification at the end of each challenge every three days. GPC2-BBz served as a positive control while the untransduced T cell (UnT) was used as a negative control.

SH-SY5Y [2] = assay: IFNγ release in co-culture with SH-SY5Y; type: cell-based, human; details: for IFNγ release: Example 7, co-culture with SH-SY5Y, FIG. 8D-8F
Excerpt: (§1) In addition to the cytotoxicity data above, supernatants from the in vitro co-culture assays were also collected to assess CAR T cells-induced cytokine release, e.g., release of interferon gamma (i.e., IFNγ), as another indicator of cytotoxicity, was quantified using a HTRF human IFNγ AlphaLISA kit (Perkin Elmer, #62HIFNGPEH) per manufacturer's instruction. […] No significant cytokine release were detected against GPC2-negative cell line A-431.
(§2) Supernatants from the in vitro co-culture assays were collected to assess CAR T cells-induced cytokine release, e.g., interferon gamma (i.e., IFNγ) release as described in Example 6. […] IFNγ was not induced in GPC2-negative A-431 cells. […] Cytokine release data was consistent with the in vitro cytotoxicity data.

IMR-32 = assay: IFNγ release in co-culture with IMR-32; type: cell-based, human; details: Example 7, co-culture with IMR-32, FIG. 8D-8F
Excerpt: as §1, §2

[3] = test system: neuroblastoma SH-SY5Y xenograft; type: in vivo, NCG mice; details: mouse, in vivo
Description: A single dose of untransduced T cells (10×10^6) or CAR T cells (5×10^6) was administered intravenously to tumor engrafted mice 9 days after tumor inoculation (FIG. 9A). […] At the end of obversion, 100% of monovalent CAR T cells (CAS70950VH6-BBz, CAS72669VH6-BBz) and 80% of multi-valent CAR T cells (CAS70950VH6-AS71529VH6-BBz) treated mice were alive (FIG. 9A). At day 42 post treatment, 2/5 mice (40%) treated with CAS72669VH6-BBz expressing CAR T cells were tumor-free and 3/5 mice (60%) treated with CAS70950VH6-AS71529VH6-BBz expressing CAR T cells were tumor-free without recurrence. […] The data highlighted the superiority of VHH-based CAR T cells in tumor regression and protection of mice from disease progression.
Moreover, the expansion and persistence of CAR T cells in vivo are also considered as critical predictors of durable clinical tumor regression in patients with cancer. […] Average 5.00±6.42% of CAR T cells were found in the peripheral blood of NCG mice treated with 5×10^6 CAS70950VH6-AS71529VH6-BBz CAR T cells, whereas less than 1% CAR T cells were detected in CAS70950VH6-BBz, CAS72669VH6-BBz and CAS71529VH6-BBz expressing CAR T groups. Expansion of CAR T cells in the CAS70950VH6-AS71529VH6-BBz group was inversely correlated with tumor size over time.

B1: GPC2-CD2z: SEQ ID NO:251, GPC2 CAR T comprised CD2 and CD3 ζ intracellular signaling domains (protein)
chain: MALPVTALLLPLALLLHAARPEVQLVESGGGLVQPGGSLRLSCAISEFTYKNTCVGWFRQAPGKGREGVAAIDSDGNTNYVDSVKGRFTISQDNSKNTVYLQMNSLRAEDTAMYYCAAGAYCGRLLLWIGNYAYWGQGTLVTVSSTTTPAPRPPTPAPTIASQPLSLRPEACRPAAGGAVHTRGLDFACDIYLIIGICGGGSLLMVFVALLVFYITKRKKQRSRRNDEELETRAHRVATEERGRKPHQIPASTPQNPATSQHPPPPPGHRSQAPSHRPPPPGHRVQHQPQKRPPAPSGTQVHQQKGPPLPRPRVQPKPPHGAAENSLSPSSNRVKFSRSADAPAYKQGQNQLYNELNLGRREEYDVLDKRRGRDPEMGGKPRRKNPQEGLYNELQKDKMAEAYSEIGMKGERRRGKGHDGLYQGLSTATKDTYDALHMQALPPR
modifications: expressed in CAR T cells; GPC2-CD2z
**Q.** Which “CAR positive T cells percentage” value (SH-SY5Y [1]) does the source give for B1 here?
**A.** gradual decline

B2: GPC2-OX40z: SEQ ID NO:252, GPC2 CAR T comprised OX40 and CD3 ζ intracellular signaling domains (protein)
chain: MALPVTALLLPLALLLHAARPEVQLVESGGGLVQPGGSLRLSCAISEFTYKNTCVGWFRQAPGKGREGVAAIDSDGNTNYVDSVKGRFTISQDNSKNTVYLQMNSLRAEDTAMYYCAAGAYCGRLLLWIGNYAYWGQGTLVTVSSTTTPAPRPPTPAPTIASQPLSLRPEACRPAAGGAVHTRGLDFACDVAAILGLGLVLGLLGPLAILLALYLLRRDQRLPPDAHKPPGGGSFRTPIQEEQADAHSTLAKIRVKFSRSADAPAYKQGQNQLYNELNLGRREEYDVLDKRRGRDPEMGGKPRRKNPQEGLYNELQKDKMAEAYSEIGMKGERRRGKGHDGLYQGLSTATKDTYDALHMQALPPR
modifications: expressed in CAR T cells; GPC2-OX40z
**Q.** With B2 as the molecule, how does the “CAR positive T cells percentage” value (SH-SY5Y [1]) read?
**A.** gradual decline

B3: CAS72052VH5-BBz: humanized VHH anti-GPC2 CAR (4-1BB, CD3ζ), SEQ ID NO: 224; tested as CAR T cells (protein)
chain: MALPVTALLLPLALLLHAARPQVQLVESGGGVVQPGGSLRLSCAVSGFRYASYCMGWFRQAPGKGLEGVAAIHSDGIIRYAESVKGRFTISKDNSKNTLYLQMNSLRAEDTAVYYCAAGAYCGADAILTLYDYAFWGQGTLVTVSSTTTPAPRPPTPAPTIASQPLSLRPEACRPAAGGAVHTRGLDFACDIYIWAPLAGTCGVLLLSLVITLYCKRGRKKLLYIFKQPFMRPVQTTQEEDGCSCRFPEEEEGGCELRVKFSRSADAPAYKQGQNQLYNELNLGRREEYDVLDKRRGRDPEMGGKPRRKNPQEGLYNELQKDKMAEAYSEIGMKGERRRGKGHDGLYQGLSTATKDTYDALHMQALPPR
modifications: expressed in CAR T cells; CAS72052VH5-BBz
**Q.** With B3 as the molecule, how does the IFNγ release (SH-SY5Y [2]) read?
**A.** high levels of IFNγ

**Q.** What about the IFNγ release (IMR-32) of the same molecule?
**A.** high levels of IFNγ

B4: CAS71529VH6-BBz: humanized VHH anti-GPC2 CAR (4-1BB, CD3ζ), SEQ ID NO: 223; tested as CAR T cells (protein)
chain: MALPVTALLLPLALLLHAARPEVQLVESGGGLVQPGGSLRLSCAVSEYRYSSRYCMGWFRQAPGKGREGVAAIDSNGSADYVDSVKGRFTISKDNSKNTLYLQMNSLRAEDTAMYYCAADHLAYDCYSGATSVFRYWGQGTLVTVSSTTTPAPRPPTPAPTIASQPLSLRPEACRPAAGGAVHTRGLDFACDIYIWAPLAGTCGVLLLSLVITLYCKRGRKKLLYIFKQPFMRPVQTTQEEDGCSCRFPEEEEGGCELRVKFSRSADAPAYKQGQNQLYNELNLGRREEYDVLDKRRGRDPEMGGKPRRKNPQEGLYNELQKDKMAEAYSEIGMKGERRRGKGHDGLYQGLSTATKDTYDALHMQALPPR
modifications: expressed in CAR T cells; CAS71529VH6-BBz
**Q.** Which results are given for B4?
**A.** IFNγ release (SH-SY5Y [2]): high levels of IFNγ; IFNγ release (IMR-32): high levels of IFNγ; percentage of CAR T cells in peripheral blood [3]: less than 1%

B5: GPC2-CD28z: SEQ ID NO: 248, GPC2 CAR T comprised CD28 and CD3 ζ intracellular signaling domains (protein)
chain: MALPVTALLLPLALLLHAARPEVQLVESGGGLVQPGGSLRLSCAISEFTYKNTCVGWFRQAPGKGREGVAAIDSDGNTNYVDSVKGRFTISQDNSKNTVYLQMNSLRAEDTAMYYCAAGAYCGRLLLWIGNYAYWGQGTLVTVSSIEVMYPPPYLDNEKSNGTIIHVKGKHLCPSPLFPGPSKPFWVLVVVGGVLACYSLLVTVAFIIFWVRSKRSRLLHSDYMNMTPRRPGPTRKHYQPYAPPRDFAAYRSRVKFSRSADAPAYKQGQNQLYNELNLGRREEYDVLDKRRGRDPEMGGKPRRKNPQEGLYNELQKDKMAEAYSEIGMKGERRRGKGHDGLYQGLSTATKDTYDALHMQALPPR
modifications: expressed in CAR T cells; GPC2-CD28z
**Q.** How did the “IFNγ production against SH-SY5Y” value (SH-SY5Y [2]; GPC2 CAR Ts with different co-stimulatory domains, FIG. 13B) turn out when B5 was run?
**A.** higher level of IFNγ production

**Q.** What about the “long term persistence and CAR T cells expansion” value (SH-SY5Y [1]; serial SH-SY5Y challenge without IL-2, FIG. 14A and 14C) of the same molecule?
**A.** comparable level of long term persistence and CAR T cells expansion

**Q.** What about the “CAR positive T cells percentage” value (SH-SY5Y [1]) of the same molecule?
**A.** expanded and reaching a peak level

B6: GPC2-CD27z: SEQ ID NO: 249, GPC2 CAR T comprised CD27 and CD3 ζ intracellular signaling domains (protein)
chain: MALPVTALLLPLALLLHAARPEVQLVESGGGLVQPGGSLRLSCAISEFTYKNTCVGWFRQAPGKGREGVAAIDSDGNTNYVDSVKGRFTISQDNSKNTVYLQMNSLRAEDTAMYYCAAGAYCGRLLLWIGNYAYWGQGTLVTVSSTTTPAPRPPTPAPTIASQPLSLRPEACRPAAGGAVHTRGLDFACDILVIFSGMFLVFTLAGALFLHQRRKYRSNKGESPVEPAEPCHYSCPREEEGSTIPIQEDYRKPEPACSPRVKFSRSADAPAYKQGQNQLYNELNLGRREEYDVLDKRRGRDPEMGGKPRRKNPQEGLYNELQKDKMAEAYSEIGMKGERRRGKGHDGLYQGLSTATKDTYDALHMQALPPR
modifications: expressed in CAR T cells; GPC2-CD27z
**Q.** For B6, which “CAR positive T cells percentage” value (SH-SY5Y [1]) is on record?
**A.** gradual decline

B7: GPC2-ICOSz: SEQ ID NO:250, GPC2 CAR T comprised ICOS and CD3 ζ intracellular signaling domains (protein)
chain: MALPVTALLLPLALLLHAARPEVQLVESGGGLVQPGGSLRLSCAISEFTYKNTCVGWFRQAPGKGREGVAAIDSDGNTNYVDSVKGRFTISQDNSKNTVYLQMNSLRAEDTAMYYCAAGAYCGRLLLWIGNYAYWGQGTLVTVSSTTTPAPRPPTPAPTIASQPLSLRPEACRPAAGGAVHTRGLDFACDFWLPIGCAAFVVVCILGCILICWLTKKKYSSSVHDPNGEYMFMRAVNTAKKSRLTDVTLRVKFSRSADAPAYKQGQNQLYNELNLGRREEYDVLDKRRGRDPEMGGKPRRKNPQEGLYNELQKDKMAEAYSEIGMKGERRRGKGHDGLYQGLSTATKDTYDALHMQALPPR
modifications: expressed in CAR T cells; GPC2-ICOSz
**Q.** How did the “CAR positive T cells percentage” value (SH-SY5Y [1]) turn out when B7 was run?
**A.** gradual decline
